Test results: paper PMC5906480, “Tau Antibody Structure Reveals a Molecular Switch Defining a Pathological Conformation of the Tau Protein” (Scientific Reports, 2018)

Assays:
[1] = system: pS396/pS404 peptide; assay: ELISA, pS396/pS404 peptide; assay type: binding; details: plate coated with peptide 2 μg/mL; C5.2 IgG 8 μg/mL–0.05 ng/mL, 1 h room temperature; 405 nm
Method: (§1) Immulon 4 HBX (extra high-binding) 96-well microtiter plates (Thermo Scientific) were coated with the same peptide used for crystallization diluted to 2 μg/mL in phosphate-buffered saline (PBS) and left overnight at 4 °C (Table 1). Plates were then washed three times in PBS-T (PBS containing 0.05% Tween-20) and blocked in 5% non-fat milk and 3% bovine serum albumin in PBS for 2 hours at room temperature. Plates were subsequently washed 3 times in PBS-T before C5.2 was serially diluted (8 μg/mL–0.05 ng/mL) in PBS and incubated for 1 hour at room temperature. Then, alkaline phosphatase-conjugated goat anti-mouse IgG (Southern Biotech) was diluted 1:2000 in PBS and incubated for 30 minutes at room temperature. Finally, bound IgG was analyzed by addition of p-nitrophenyl phosphate substrate (Thermo Scientific) and measurement at 405 nm on a VersaMax Microplate Reader.
(§2) In order to evaluate the ability of C5.2 to exclusively target the phosphorylated epitope, we performed an enzyme-linked immunosorbent assay (ELISA). The peptides used in the assay are the same peptides used for crystallization and diluted to a concentration of 2 μg/mL (Table 1). Binding curves were generated from ELISA data by maintaining plate-bound peptide concentrations and serially diluting C5.2 IgG (Fig. 1c).

[2] = system: pS396 peptide; assay: ELISA, pS396 peptide; assay type: binding
Method: as §1, §2

[3] = system: normal tau in the soluble tau fraction (S1) from non-transgenic littermates; assay: Western and dot blot, non-transgenic littermate brain; assay type: binding, mouse; details: C5.2 1 µg/mL overnight 4 °C, 24 weeks old non-tg mice
Description: rTg4510, tTA and non-Tg littermate F1 mice were bred at Taconic, Denmark. Mice expressing the tTA activator transgenes were maintained on 129S6 background strain (Taconic) and mutant tau responder mice were maintained in the FVB/NCrl background strain (Taconic). Mice were screened by PCR using the following primer pairs [NT] and [NT] for the tTA activator transgene and [NT] and [NT] for the mutant tau responder transgene. rTg4510, tTA and non-Tg littermates were group-housed (5 animals/cage) and received water and food ad libitum (Brogaarden, Denmark) as well as environmental enrichment. The light/dark cycle was 12 hours; room temperature was 21 ± 2 °C and a relative humidity of 55% ± 5%. All animal experiments were performed in accordance with the European Communities Council Directive #86/609, the directives of the Danish National Committee on Animal Research Ethics, and Danish legislation on experimental animals (license no. 2014-15-0201-00339). Mice were euthanized by cervical dislocation. Brains were quickly removed, weighed and divided sagittally down the midline to yield two hemispheres. […] Tau and pTau levels were assessed in the samples using 1 μg/mL C5.2 overnight at 4 °C. A secondary fluorophore conjugated IgG antibody was used (IRDye 680 Goat anti-mouse, LICOR biosciences) and the signal was quantified using Odyssey CLx and Image studio software (LI-COR biosciences). […]

B1: C5.2: novel mouse monoclonal antibody that targets the pS396 tau epitope region (antibody, V domains shown)
VH: QVQLQQSDAELVKPGASVKISCKASGYTFTDRTIHWVKQRPEQGLEWIGYIYPGDDSTKYNDMFKAKATLTADKSSNTAYMQLNSLTSDDSAVYFCARRGTMDYWGQGTSVTVSS
VL: DVQMIQSPSSLSASLGDIVTMTCQASQDTSINLNWFQQKPGKAPKLLIYGASNLEDGVPSRFSGSRYGTDFTLTISSLEDEDMATYFCLQHTYLPFTFGSGTKLEIK
Association with peptide (ELISA) [1]: strong association
Phospho-specificity ([2]; ELISA, vs pS404 and non-phosphorylated peptides): pS396 phosphorylation state-specific mAb
Association with peptide (ELISA) ([2]; plate coated with peptide 2 μg/mL, C5.2 IgG 8 μg/mL–0.05 ng/mL, 1 h room temperature, 405 nm): strong association
Detection of normal tau (S1) [3]: not detected
